The text below walks through data of publication doi:10.1101/2025.03.21.644525 (bioRxiv, 2025).

This assay concerns the target T1, ARM domain of APC (residues 338-1010), untagged (Mus musculus, UniProt Q61315 338-1010).
T1 sequence (looked up): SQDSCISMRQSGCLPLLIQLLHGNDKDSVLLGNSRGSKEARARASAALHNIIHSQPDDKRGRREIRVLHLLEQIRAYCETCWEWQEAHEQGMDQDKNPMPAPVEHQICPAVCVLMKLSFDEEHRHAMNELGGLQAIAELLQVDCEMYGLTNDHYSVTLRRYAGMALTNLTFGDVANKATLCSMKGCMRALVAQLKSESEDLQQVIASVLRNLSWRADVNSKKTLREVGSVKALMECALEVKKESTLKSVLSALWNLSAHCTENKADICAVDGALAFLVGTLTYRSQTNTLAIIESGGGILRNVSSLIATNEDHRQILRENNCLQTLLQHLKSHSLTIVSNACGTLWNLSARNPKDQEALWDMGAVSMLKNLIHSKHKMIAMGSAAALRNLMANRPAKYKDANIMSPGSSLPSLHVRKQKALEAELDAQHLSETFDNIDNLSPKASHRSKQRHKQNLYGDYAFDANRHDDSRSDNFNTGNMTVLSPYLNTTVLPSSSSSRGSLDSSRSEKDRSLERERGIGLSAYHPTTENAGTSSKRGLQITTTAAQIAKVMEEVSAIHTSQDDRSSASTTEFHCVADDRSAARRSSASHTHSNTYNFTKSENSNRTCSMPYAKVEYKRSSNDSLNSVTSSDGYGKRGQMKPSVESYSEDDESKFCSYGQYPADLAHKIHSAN
Put plainly: cryo-EM structure.

B1: KIF3A C-terminal region (residues 481-701, ACT), N-terminal 6His tag (domain or fragment, Mus musculus, UniProt P28741 481-701, looked up)
chain: VIVGGVDLLAKAEEQEKLLEESNMELEERRRRAEQLRKELEEKEQERLDIEEKYTSLQEEAQGKTKKLKKVWTMLMAAKSEMADLQQEHQREIEGLLENIRQLSRELRLQMLIIDNFIPQDYQEMIENYVHWNEDIGEWQLKCVAYTGNNMRKQTPVPDKKERDPFEVDLSHVYLAYTEESLRQSLMKLERPRTSKGKARPKMGRRKRSAKPETVIDSLLQ
For the molecule B1, the binding result is listed as “binds”.
